39 variants from the RNAGym collection of RNA variant scans (doi:10.7554/elife.80360) can be followed below.

B1: CPEB3 Ribozyme (parent)
chain: GGGGGCCACAGCAGAAGCGUUCACGUCGCGGCCCCUGUCAGAUUCUGGUGAAUCUGCGAAUUCUGCUGU

Variants of B1 are the subject of the data set. Kind of data set: self-cleavage, relative activity (ratio to wild type); higher = more cleavage; co-transcriptional.
Turning to GGGGGCCACAACAGAAGCGUUCACGUCGCGGCCCCGGUCAGAUUCUGGUGAAUCUGCGAAUUCUGCUGU [G11A U36G], the self-cleavage was found to be 0.131. As for GGGGGCCACAACAGAAGCGUUCACGUCGCGGCCCCUGUCAGAUUCGGGUGAAUCUGCGAAUUCUGCUGU [G11A U46G], the self-cleavage was 0.93. As to GGGGGCCACAACAGAAGCGUUCACGUCGCGGCCCCUGUCAGAUUCAGGUGAAUCUGCGAAUUCUGCUGU [G11A U46A], the self-cleavage was 0.932.

Regarding GGGGGCCACAACAGAAGCGUUCACGUCGCGGCCCCUGUCAGAUUCCGGUGAAUCUGCGAAUUCUGCUGU [G11A U46C], the self-cleavage was 0.91. For the variant GGGGGCCACACCAGAAGCGUUCAAGUCGCGGCCCCUGUCAGAUUCUGGUGAAUCUGCGAAUUCUGCUGU [G11C C24A], the self-cleavage was 0.321. GGGGGCCACACCAGAAGCGUUCAUGUCGCGGCCCCUGUCAGAUUCUGGUGAAUCUGCGAAUUCUGCUGU [G11C C24U]: the self-cleavage is 0.334. Turning to GGGGGCCACAACAGAAGCGUUCACGUCGCGGCCCCUGCCAGAUUCUGGUGAAUCUGCGAAUUCUGCUGU [G11A U38C], the self-cleavage was determined as 0.733. GGGGGCCACAACAGAAGCGUUCACGUCGCGGCCCCUGACAGAUUCUGGUGAAUCUGCGAAUUCUGCUGU [G11A U38A]: the self-cleavage is 0.684.

Turning to GGGGGCCACAACAGAAGCGUUCACGUCGCGGCCCCUGGCAGAUUCUGGUGAAUCUGCGAAUUCUGCUGU [G11A U38G], the self-cleavage stood at 0.142. In the case of GGGGGCCACACCAGAAGCGUUCACGUCGGGGCCCCUGUCAGAUUCUGGUGAAUCUGCGAAUUCUGCUGU [G11C C29G], the self-cleavage turned out to be 0.139. For GGGGGCCACACCAGAAGCGUUCACGUCGUGGCCCCUGUCAGAUUCUGGUGAAUCUGCGAAUUCUGCUGU [G11C C29U], the self-cleavage is 0.12.

As to GGGGGCCACACCAGAAGCGUUCACGUCGAGGCCCCUGUCAGAUUCUGGUGAAUCUGCGAAUUCUGCUGU [G11C C29A], the self-cleavage is 0.181. In the case of GGGGGCCACAACAGAAGCGUUCACGACGCGGCCCCUGUCAGAUUCUGGUGAAUCUGCGAAUUCUGCUGU [G11A U26A], the self-cleavage amounted to 0.676.

As for GGGGGCCACAACAGAAGCGUUCACGUCGCGGCCCCUGUCAGAUUCUGGUGAAUCUGCGAAUUCUGCUGA [G11A U69A], the self-cleavage stood at 0.973. Take GGGGGCCACAACAGAAGCGUUCACGUCGCGGCCCCUGUCAGAUUCUGGUGAAUCUGCGAAUUCUGCUGG [G11A U69G]: the self-cleavage worked out at 1.01.

Consider GGGGGCCACACCAGAAGAGUUCACGUCGCGGCCCCUGUCAGAUUCUGGUGAAUCUGCGAAUUCUGCUGU [G11C C18A], for which the self-cleavage was 0.0969. To GGGGGCCACACCAGAAGUGUUCACGUCGCGGCCCCUGUCAGAUUCUGGUGAAUCUGCGAAUUCUGCUGU [G11C C18U] belongs 0.246; to GGGGGCCACAACAGAAGCGUUCACGUCGCGGCCCCUGUCAGAUGCUGGUGAAUCUGCGAAUUCUGCUGU [G11A U44G], 0.76; to GGGGGCCACAACAGAAGCGUUCACGUCGCGGCCCCUGUCAGAUCCUGGUGAAUCUGCGAAUUCUGCUGU [G11A U44C], 0.528. Turning to GGGGGCCACAACAGAAGCGUUCACGUCGCGGCCCCUGUCAGAUUCUGGGGAAUCUGCGAAUUCUGCUGU [G11A U49G], the self-cleavage was 0.965.

Regarding GGGGGCCACAACAGAAGCGUUCACGUCGCGGCCCCUGUCAGAUUCUGGAGAAUCUGCGAAUUCUGCUGU [G11A U49A], the self-cleavage came to 0.926. As to GGGGGCCACACCAGAAGCGUUCUCGUCGCGGCCCCUGUCAGAUUCUGGUGAAUCUGCGAAUUCUGCUGU [G11C A23U], the self-cleavage stood at 0.798. As to GGGGGCCACAACAGAAGCGUUCACGUCGCGGCCCCUGUCAGAUUCUGGUGAAUCUGCGAAUUCUGCUCU [G11A G68C], the self-cleavage was 0.947.

Take GGGGGCCACAACAGAAGCGUUCACGUCGCGGCCCCUGUCAGAUUCUGGUGAAUCUGCGAAUUCUGCUUU [G11A G68U]: the self-cleavage worked out at 0.915. Regarding GGGGGCCACAACAGAAGCGUUCACGUCGCGGCCCCUGUCAGAUUCUGGUGAAUCUGCGAAUUCUGCUAU [G11A G68A], the self-cleavage came out at 0.956. As for GGGGGCCACACCAGAAGCGUUCACGUCGCGGCGCCUGUCAGAUUCUGGUGAAUCUGCGAAUUCUGCUGU [G11C C33G], the self-cleavage worked out at 0.507. Consider GGGGGCCACAACAGAAGCGUUCACGUCGCGGCCCCUGUCAGAUUCUGGUGAACCUGCGAAUUCUGCUGU [G11A U53C], for which the self-cleavage came to 0.352. For GGGGGCCACAACAGAAGCGUUCACGUCGCGGCCCCUGUCAGAUUCUGGUGAAGCUGCGAAUUCUGCUGU [G11A U53G], the self-cleavage was found to be 0.622.

Regarding GGGGGCCACAACAGAAGCGUUCACGUCGCGGCCCCUGUCAGAUUCUGGUGAAUCUGCUAAUUCUGCUGU [G11A G58U], the self-cleavage is 0.905. Turning to GGGGGCCACACAAGAAGCGUUCACGUCGCGGCCCCUGUCAGAUUCUGGUGAAUCUGCGAAUUCUGCUGU [G11C C12A], the self-cleavage came out at 0.653. Take GGGGGCCACACCAGAAGCGUUCACGUAGCGGCCCCUGUCAGAUUCUGGUGAAUCUGCGAAUUCUGCUGU [G11C C27A]: the self-cleavage was determined as 0.177.

Turning to GGGGGCCACACCAGAAGCGUUCACGUUGCGGCCCCUGUCAGAUUCUGGUGAAUCUGCGAAUUCUGCUGU [G11C C27U], the self-cleavage was determined as 0.0897. In the case of GGGGGCCACACCAGAAGCGUUCACGUCGCGGCCCCUGUCAGAUUCUGGUGAUUCUGCGAAUUCUGCUGU [G11C A52U], the self-cleavage worked out at 0.628. For the variant GGGGGCCACACCAGAAGCGUUCACGUCGCGGCCCCUGUCAGAUUCUGGUGACUCUGCGAAUUCUGCUGU [G11C A52C], the self-cleavage turned out to be 0.551. For the variant GGGGGCCACACCAGAAGCGUUCACGUCGCGGCCCCUGUCAGAUUCUGGUGAGUCUGCGAAUUCUGCUGU [G11C A52G], the self-cleavage is 0.838.

With GGGGGCCACAACAGAAGCGGUCACGUCGCGGCCCCUGUCAGAUUCUGGUGAAUCUGCGAAUUCUGCUGU [G11A U20G], the self-cleavage is 0.154. The figure for GGGGGCCACAACAGAAGCGCUCACGUCGCGGCCCCUGUCAGAUUCUGGUGAAUCUGCGAAUUCUGCUGU [G11A U20C] is 0.213; for GGGGGCCACAACAGAAGCGUUCACGUCGCGGCCCCUGUCAGAUUCUGGUGAAUCUGCGAAUUCUUCUGU [G11A G65U] it is 0.781; for GGGGGCCACAACAGAAGCGUUCACGUCGCGGCCCCUGUCAGAUUCUGGUGAAUCUGCGAAUUCUACUGU [G11A G65A] it is 0.759.
